According to patent publication US20250000991A1, “NECTIN-4 ANTIBODIES AND ANTIBODY-DRUG CONJUGATES” (Eli Lilly and Company, priority 2023, published 2025):
Where “and” joins values, the source holds several entries; their conditions need not be identical. Identical values can stand only once.

How the values were obtained:
[1] = target: T1, human Nectin-4 (Homo sapiens, UniProt Q96NY8); test: Surface plasmon resonance (Biacore 8K+) binding of nectin-4 ADCs to human Nectin-4; settings: human Nectin-4, 37° C., ADC Formula XI DAR 8; n=3 mean ± SD, n=2 replicate values
T1 construct: His tag; purchased Acro Biosystems NE4-H52H3
T1 sequence (Q96NY8 32-510): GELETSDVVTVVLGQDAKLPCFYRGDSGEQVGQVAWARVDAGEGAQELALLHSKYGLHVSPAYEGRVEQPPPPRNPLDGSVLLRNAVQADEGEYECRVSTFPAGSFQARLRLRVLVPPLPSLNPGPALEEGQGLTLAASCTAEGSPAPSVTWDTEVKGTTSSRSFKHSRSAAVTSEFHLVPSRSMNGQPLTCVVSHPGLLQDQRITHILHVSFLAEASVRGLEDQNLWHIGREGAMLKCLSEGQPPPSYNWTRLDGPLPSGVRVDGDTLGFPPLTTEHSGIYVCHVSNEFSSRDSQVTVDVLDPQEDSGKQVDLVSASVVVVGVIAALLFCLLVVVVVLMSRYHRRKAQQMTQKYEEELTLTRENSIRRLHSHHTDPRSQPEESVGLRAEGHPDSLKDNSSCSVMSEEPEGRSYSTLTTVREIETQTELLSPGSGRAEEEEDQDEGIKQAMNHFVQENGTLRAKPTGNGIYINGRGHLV
Protocol: (§1) An anti-human Fc sensor surface was prepared by amine-coupling of goat anti-human IgG Fc (Southern Biotech Cat. No. 2014-01, Birmingham, AL) to a Biacore Series S CM4 (Cytiva Cat. No. BR-100534) sensor surface at 25° C. For immobilization, a running buffer of 10 mM HEPES, 150 mM NaCl, 0.05% Tween-20, pH 7.4 was used. Flow cells 1 & 2 of all 8 channels were activated with a 1:1 (v/v) mixture of 400 mM 1-Ethyl-3-(3-dimethylaminopropyl) carbodiimide hydrochloride (EDC) and […] N-Hydroxysuccinimide (NHS) at a flow rate of 10 uL/min for 7 minutes. Then the anti-human IgG Fc capture reagent was coupled to the sensor surface (diluted to 50 μg/mL in 10 mM Acetate pH 4.5 buffer) by injecting it in all flow cells and channels at a flow rate of 10 uL/min for 7 minutes. Remaining active groups were blocked by injecting 100 mM ethylenediamine (in 200 mM Borate buffer, pH 8.5) in all flow cells and channels at a flow rate of 10 uL/min for 7 minutes. All channels and flow cells were then preconditioned using three consecutive 1-minute injections of 75 mM phosphoric acid at 10 uL/min.
(§2) In each analysis cycle, a different ADC was captured on flow cell 2 of each channel by injecting it at 5 μg/mL and 10 uL/min. After capture, the same analyte was injected on flow cells 1 and 2 in all 8 channels for 2 minutes at 30 uL/n and dissociation was monitored for 10 minutes. After dissociation, all surfaces were regenerated with three 1-minute injections of 5 mM phosphoric acid at 10 uL/min. ADC capture and analyte cycles were repeated to obtain analyte binding of each ADC at concentrations of 0, 2.5, 7.4, 22, 67, 200 and 600 nM nectin-4.
(§3) Sensorgram data were fit globally with the default 1:1 binding model in Biacore Insight Evaluation Software v3.0.12.15655.

[2] = system: UMUC3-Luc-GFP + UMUC3-hNectin4 clone F7; test: Bystander killing of UMUC3-Luc-GFP cells co-cultured with UMUC3-hNectin4 clone F7 (ONE-Glo); format: cell-based, human; settings: UMUC3-hNectin-4 cloneF7/UMUC3-Luciferase-GFP 4:1, 5 days
Protocol: UMUC3 cell line was engineered to express human Nectin4 and two clonal populations with different levels of expression were selected. In flat white clear-bottom 96-well plates, UMUC3-hNectin4 clone F7/UMUC3-Luc-GFP cells were mixed and seeded at a total of 1500 cells/well/100 ul with a ratio of 4:1 in assay medium (MEM+1× GlutaMax+10% Heat Inactivated Fetal Bovine Serum+1 mM sodium pyruvate). UMUC3-hNectin4 clone E3/UMUC3-Luc-GFP cells were mixed and seeded at a total of 2100 cells/well/100 ul with a ratio of 6:1 in assay medium. UMUC3-Luc-GFP cells were negative for nectin-4 expression. Plates were incubated at 37° C. with 5% CO2 overnight. […] Plates were read after 5-days treatment using ONE-GloTM Luciferase Assay System. […] Luminescence was read in the SpectraMax M5e. […] Percentage of UMUC3-Luc-GFP killing was calculated against no treatment as 0%. Data was graphed and analyzed using Graphpad Prism version 9.5.1. IC50 was determined via log(inhibitor) vs. response (three parameters) curve fitting for bystander activity and log(inhibitor) vs. response (four parameters) for free payload cytotoxicity. […] In experiments run as essentially described herein, the bystander effects of four nectin-4 ADCs described herein and enfortumab vedotin were evaluated using the UMUC3-hNectin-4 cloneF7/UMUC3-Luciferase-GFP cell pair. […]

[3] = system: T24 mScarlet clone 5 Nectin-4 negative cells; test: Bystander killing of T24-mScarlet clone 5 cells co-cultured with T24-human nectin4 clone108 (imaging); format: cell-based; settings: T24-mScarlet clone5 : T24-human nectin4 clone108 9:1, 5 days, ADC Formula XI DAR 8; read-out: IC50 of bystander effect
Protocol: T24 cell line was engineered to express mScarlet and clonally selected to test in bystander assay. T24-mScarlet clone5 and T24-human nectin4 clone108 were mixed and seeded at a total of 1000 cells/well/100 ul with a ratio of 9:1 in culture medium (McCoy's 5A+1× GlutaMax+10% Heat Inactivated Fetal Bovine Serum+400 μg/ml G418) in flat clear bottom 96-well plates. T24 mScarlet clone 5 cells were negative for nectin-4 expression. Plates were incubated at 37° C. with 5% CO2 overnight. Next day, ADCs were added at final working concentration from 50 nM, 1:4 serially diluted in culture medium. Plates were covered with Breathe-Easy® sealing membrane, placed in BioSpa and scanned in Cytation5 every day for 5 days.
Images of T24-mScarlet cells were captured and analyzed by Cytation5 with Gen5 Image Prime 3.11. Percentage of T24-mScarlet cell killing was calculated by decreased Integrated Intensity (area×mean intensity), normalized to zero hour and no treatment. Data was graphed and analyzed using GraphPad Prism version 9.5.1. IC50 was determined via log(inhibitor) vs. response-variable slope (four parameters) curve fitting.

[4] = system: rat Nectin-4; test: Surface plasmon resonance (Biacore 8K+) binding of nectin-4 ADCs to rat Nectin-4; settings: rat Nectin-4, 37° C., ADC Formula XI DAR 8, n=1
Protocol: as §1, §2, §3

[5] = system: cyno Nectin-4; test: Surface plasmon resonance (Biacore 8K+) binding of nectin-4 ADCs to cyno Nectin-4; settings: cyno Nectin-4, 37° C., ADC Formula XI DAR 8, n=1
Protocol: as §1, §2, §3

B1: Ab1a (conjugate)
heavy: QVQLVQSGAQVKKPGASVKVSCKASGYTFTGYYIHWVRQAPGQGLEWMGWINPNSGGTNYAQKFQGRVTMTRDTSISTAYMELSRLRSDDTAVYFCAREDWDFDYWGQGTLVTVSSASTKGPSVFPLAPSSKSTSGGTAALGCLVKDYFPEPVTVSWNSGALTSGVHTFPAVLQSSGLYSLSSVVTVPSSSLGTQTYICNVNHKPSNTKVDKRVEPKSCDKTHTCPPCPAPEAAGGPSVFLFPPKPKDTLMISRTPEVTCVVVSVSHEDPEVKFNWYVDGVEVHNAKTKPREEQYNSTYRVVSVLTVLHQDWLNGKEYKCKVSNKALPAPIEKTISKAKGQPREPQVYTLPPSREEMTKNQVSLTCLVKGFYPSDIAVEWESNGQPENNYKTTPPVLDSDGSFFLYSKLTVDKSRWQQGNVFSCSVMHEALHNHYTQKSLSLSPGK
light: EIVLTQSPGTLSLSPGERATLSCRTSQSVSSSYLAWYQQKPGQAPRLLIYGASNRATDIPDRFSGSGSGTDFTLTINRLEPEDFAVYYCQQYGSSPITFGQGTRLEIKRTVAAPSVFIFPPSDEQLKSGTASVVCLLNNFYPREAKVQWKVDNALQSGNSQESVTEQDSKDSTYSLSSTLTLSKADYEKHKVYACEVTHQGLSSPVTKSFNRGEC
**Q.** Which results are given for B1?
**A.** ka [1]: 2.83 × 10^5, 1/Ms and 4.24 × 10^5 1/Ms; kd [1]: 4.02 × 10^−2, 1/s and 3.08 × 10^−2 1/s; Bystander effect (in words) [2]: potent bystander effects; IC50 [3]: 41 pM; ka [4]: 252000 M⁻¹ s⁻¹; kd [4]: 0.0453 s⁻¹; ka [5]: 310000 M⁻¹ s⁻¹; kd [5]: 0.026 s⁻¹
